Experiment [1] concerns the target Vps13 F^2465A Y^2466A ^GFP (S. cerevisiae, UniProt Q07878 1-3144, F^2465A | Y^2466A). In words: co-IP.
Experiment [2] has as its target Vps13^GFP (wild type) (S. cerevisiae, UniProt Q07878 1-3144). In words: co-IP.

B1: Ypt35-3HA (natural protein, S. cerevisiae, UniProt P38815 1-214, looked up)
chain: MSDKISFLPPEPIQLLDEDSTEPELDIDSQQENEGPISASNSNDSTSHSNDCGATITRTRPRRSSSINANFSFQKAHVSDCTIVNGDHGTKFAVWRITVFLEPNLKAFAAKRESYKIQTYKRYSDFVRLRENLLTRIKTAKPEKLNCLQIPHLPPSVQWYSSWKYQEVNLNKDWLAKRQRGLEYFLNHIILNSSLVEMTKDILIQFLEPSKRVA
For B1, the “percent recovery relative to WT” value in experiment [1] stood at 24%.

B2: Ypt35 P^10,12A -3HA (natural protein, S. cerevisiae, UniProt P38815 1-214, looked up)
chain: MSDKISFLPAEAIQLLDEDSTEPELDIDSQQENEGPISASNSNDSTSHSNDCGATITRTRPRRSSSINANFSFQKAHVSDCTIVNGDHGTKFAVWRITVFLEPNLKAFAAKRESYKIQTYKRYSDFVRLRENLLTRIKTAKPEKLNCLQIPHLPPSVQWYSSWKYQEVNLNKDWLAKRQRGLEYFLNHIILNSSLVEMTKDILIQFLEPSKRVA
With B2, in experiment [2], the “percent recovery relative to WT” value is 19%.

(Values after publication doi:10.1101/2025.08.12.669934 (bioRxiv, 2025).)
